Source: patent US20210101970A1 (Pfizer, published 2021)

How the values were obtained:
rabbit CXCR5 ortholog = target: T1, rabbit CXCR5 ortholog (rabbit, UniProt G1TNG1 1-374); assay: not described
T1 sequence: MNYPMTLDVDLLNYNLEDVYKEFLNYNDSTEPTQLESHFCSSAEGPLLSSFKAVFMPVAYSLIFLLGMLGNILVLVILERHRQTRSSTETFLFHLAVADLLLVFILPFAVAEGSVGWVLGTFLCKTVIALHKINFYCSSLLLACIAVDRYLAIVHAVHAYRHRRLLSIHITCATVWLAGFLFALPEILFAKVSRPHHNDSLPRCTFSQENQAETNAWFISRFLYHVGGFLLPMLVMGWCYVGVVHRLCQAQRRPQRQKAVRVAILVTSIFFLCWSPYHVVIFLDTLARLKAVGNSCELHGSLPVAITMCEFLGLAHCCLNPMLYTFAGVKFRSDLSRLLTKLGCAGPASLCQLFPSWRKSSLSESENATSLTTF

rat CXCR5 ortholog = target: T2, rat CXCR5 ortholog (rat, UniProt P34997 1-374); assay: not described
T2 sequence (looked up): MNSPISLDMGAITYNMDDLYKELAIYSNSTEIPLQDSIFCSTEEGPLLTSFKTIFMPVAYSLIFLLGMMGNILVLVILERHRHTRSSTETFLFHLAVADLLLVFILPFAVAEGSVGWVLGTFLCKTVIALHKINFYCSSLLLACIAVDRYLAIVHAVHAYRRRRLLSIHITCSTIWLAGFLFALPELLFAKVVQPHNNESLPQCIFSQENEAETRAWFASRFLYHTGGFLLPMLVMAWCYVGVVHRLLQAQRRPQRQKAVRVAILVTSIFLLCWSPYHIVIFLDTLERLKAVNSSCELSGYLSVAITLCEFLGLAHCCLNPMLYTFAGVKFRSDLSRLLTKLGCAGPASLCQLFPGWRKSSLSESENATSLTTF

human CXCR5 [1] = target: T3, human CXCR5 (human, UniProt P32302 1-372); assay: cell-based or functional assay
T3 sequence: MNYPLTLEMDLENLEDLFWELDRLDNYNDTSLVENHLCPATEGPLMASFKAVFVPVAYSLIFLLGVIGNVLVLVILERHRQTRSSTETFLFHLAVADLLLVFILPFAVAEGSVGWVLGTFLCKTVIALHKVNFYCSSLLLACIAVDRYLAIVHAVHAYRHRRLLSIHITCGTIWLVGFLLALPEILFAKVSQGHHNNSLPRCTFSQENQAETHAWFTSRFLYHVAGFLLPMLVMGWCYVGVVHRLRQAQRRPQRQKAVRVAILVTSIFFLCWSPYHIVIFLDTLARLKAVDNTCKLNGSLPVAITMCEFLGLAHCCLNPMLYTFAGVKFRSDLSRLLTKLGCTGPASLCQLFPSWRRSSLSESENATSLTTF

human CXCR5 [2] = target: T3, human CXCR5; assay: flow cytometry, human PBMC Tfh-like cells
Description: (§1) The apparent affinity for cell surface CXCR5 of chimeric and humanized CXCR5 fucosylated and afucosylated antibodies was assessed. More specifically, to determine the apparent affinity of chimeric and humanized CXCR5 antibodies to CXCR5-expressing cells, cell binding experiments were performed on human and cynomolgus monkey peripheral blood mononuclear cells (PBMCs) and human tonsillar mononuclear cells (TMCs). The apparent affinity of CXCR5 mab binding to CXCR5+ cells (B cells, bona fide Tfh cells, and circulating Tfh-like cells) was calculated as the EC50 of equilibrium binding titration curves in which the geometric mean fluorescence intensity (gMFI) of the antigen binding population was quantified by flow cytometry.
(§2) Following isolation, PBMCs were plated at a density of 1.0×10⁵ cells per well and CD4+ TMCs were plated at a density of 2.0×10⁵ cells per well in isolation buffer (PBS containing 1% FBS and 1 mM EDTA) in 96 well U-bottom plates. The plates were then centrifuged at 1500 rpm for 5 minutes at room temperature. PBMCs and CD4+ TMCs were resuspended in Fluorescence-activated cell sorting (FACS) buffer (PBS containing 1% FBS) containing human crystallized fragment Fc block (2 μL per well; Biolegend) and 4-fold serial dilutions of the antibodies (11-point dilution series, beginning at 5000 ng/mL for PBMCs and 312.5 ng/mL for CD4+ TMCs) and incubated on ice for 2 hours. […]

cynomolgus monkey CXCR5 = target: T4, cynomolgus monkey CXCR5 (cynomolgus monkey, UniProt P32302 1-372 (human entry)); assay: flow cytometry, cynomolgus PBMC Tfh-like cells
T4 construct: also called cynoCXCR5; NHP CXCR5
T4 chain: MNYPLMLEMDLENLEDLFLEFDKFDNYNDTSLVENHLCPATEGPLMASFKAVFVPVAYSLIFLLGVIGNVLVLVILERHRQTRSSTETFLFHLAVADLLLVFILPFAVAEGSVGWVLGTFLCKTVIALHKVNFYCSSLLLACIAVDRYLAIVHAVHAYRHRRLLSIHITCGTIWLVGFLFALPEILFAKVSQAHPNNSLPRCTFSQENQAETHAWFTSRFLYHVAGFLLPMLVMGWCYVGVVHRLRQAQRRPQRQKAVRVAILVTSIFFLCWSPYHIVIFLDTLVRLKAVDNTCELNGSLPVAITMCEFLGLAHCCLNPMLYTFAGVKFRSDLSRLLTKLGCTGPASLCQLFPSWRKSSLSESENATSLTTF
Description: as §1, §2

binding result (rabbit CXCR5 ortholog): no binding
binding result (rat CXCR5 ortholog): no binding
ADCC (EC50, pM) (human CXCR5 [1]): 2.38 pM
EC50 (human CXCR5 [2]): 5.89 pM
EC50 (cynomolgus monkey CXCR5): 10.5 pM
B1: Afucosyl humanized 11G2 154/155 (antibody, human IgG1, kappa, V domains shown)
VH: EVQLVESGGGLVQPGGSLRLSCAASGFTFTDFYMSWVRQAPGKGLEWVGFIRNKANGYTTEYSASVKGRFTISRDNAKNSLYLQMNSLRAEDTAVYYCARVYGSTLHYWGQGTLVTVSS
VL: DIQMTQSPSSLSASVGDRVTITCRASESVEYHGTSLMHWYQQKPGKAPKLLIYAASNVESGVPSRFSGSGSGTDFTLTISSLQPEDFATYYCQQSRKVPWTFGQGTKVEIKR
modifications: afucosylated Fc glycan (Asn297)
notes: also called afucosyl h11G2 XC154/XC155; afucosylated h11G2 VL XC154/VH XC155
